The text below walks through data of patent US20260049279A1 (published 2026).

This assay deals with T1, ALK peptide on H-2Dd (mouse).
T1 peptide: PGPGRVAKI
Nature of the assay: multimer staining.

B1: Clonotype_1 (Table 1) (TCR, V domains shown)
Valpha: QQKVQQSPESLSVPEGGMASFNCTSSDRNFQYFWWYRQHSGEGPKALMSIFSDGDKKEGRFTAHLNKASLHVSLHIRDSQPSDSALYFCAASEHGNNRIFFGDGTQLVVKP
Vbeta: ETAVFQTPNYHVTQVGNEVSFNCKQTLGHDTMYWYKQDSKKLLKIMFSYNNKQLIVNETVPRRFSPQSSDKAHLNLRIKSVEPEDSAVYLCASSQDWDEQYFGPGTRLTVL
For B1, the binding result is given as “recognises”.
